From patent US20190300618A1 (Merck Sharp & Dohme, published 2019)
Substitutions are numbered along the chain they refer to. Each block holds one molecule with its values, some of them ahead of it.

Assays:
Experiment in all cases: flow cytometry, CHO-K1; sub-column 1 of 2
R87A = biological target: T1, R87A
T1 construct: also called hCD27 R87A
T1 receptor: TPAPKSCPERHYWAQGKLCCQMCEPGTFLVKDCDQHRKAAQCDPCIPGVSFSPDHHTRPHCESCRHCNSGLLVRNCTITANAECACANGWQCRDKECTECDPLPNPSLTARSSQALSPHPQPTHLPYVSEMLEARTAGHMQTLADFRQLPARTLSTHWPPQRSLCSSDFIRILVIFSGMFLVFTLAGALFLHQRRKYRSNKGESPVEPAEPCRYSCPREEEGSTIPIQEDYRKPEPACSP

R93A = biological target: T2, R93A
T2 construct: also called hCD27 R93A
T2 receptor: T1 receptor with A87R, R93A

N88A = biological target: T3, N88A
T3 construct: also called hCD27 N88A
T3 receptor: T1 receptor with A87R, N88A

W90A = biological target: T4, W90A
T4 construct: also called hCD27 W90A
T4 receptor: T1 receptor with A87R, W90A

V49A = biological target: T5, V49A
T5 construct: also called hCD27 V49A
T5 receptor: T1 receptor with V49A, A87R

D43A = biological target: T6, D43A
T6 construct: also called hCD27 D43A
T6 receptor: T1 receptor with D43A, A87R

K38A = biological target: T7, K38A
T7 construct: also called hCD27 K38A
T7 receptor: T1 receptor with K38A, A87R

K31A = biological target: T8, K31A
T8 construct: also called hCD27 K31A
T8 receptor: T1 receptor with K31A, A87R

S63A = biological target: T9, S63A
T9 construct: also called hCD27 S63A
T9 receptor: T1 receptor with S63A, A87R

P44A = biological target: T10, P44A
T10 construct: also called hCD27 P44A
T10 receptor: T1 receptor with P44A, A87R

% of WT hCD27 binding (geo mean FITC) (R87A): 143% | % of WT hCD27 binding (geo mean FITC) (R93A): 120% | % of WT hCD27 binding (geo mean FITC) (N88A): 154% | % of WT hCD27 binding (geo mean FITC) (W90A): 123% | % of WT hCD27 binding (geo mean FITC) (V49A): 144% | % of WT hCD27 binding (geo mean FITC) (D43A): 195% | % of WT hCD27 binding (geo mean FITC) (K38A): 104% | % of WT hCD27 binding (geo mean FITC) (K31A): 194% | % of WT hCD27 binding (geo mean FITC) (S63A): 158% | % of WT hCD27 binding (geo mean FITC) (P44A): 146%
Molecule: 1A4 (mouse IgG1) (antibody)

% of WT hCD27 binding (geo mean FITC) (R87A): 153% | % of WT hCD27 binding (geo mean FITC) (R93A): 122% | % of WT hCD27 binding (geo mean FITC) (N88A): 153% | % of WT hCD27 binding (geo mean FITC) (W90A): 130% | % of WT hCD27 binding (geo mean FITC) (V49A): 151% | % of WT hCD27 binding (geo mean FITC) (D43A): 201% | % of WT hCD27 binding (geo mean FITC) (K38A): 44.7% | % of WT hCD27 binding (geo mean FITC) (K31A): 207% | % of WT hCD27 binding (geo mean FITC) (S63A): 153% | % of WT hCD27 binding (geo mean FITC) (P44A): 159%
Molecule: 9F4 (mouse IgG2a) (antibody)

% of WT hCD27 binding (geo mean FITC) (R87A): 153% | % of WT hCD27 binding (geo mean FITC) (R93A): 125% | % of WT hCD27 binding (geo mean FITC) (N88A): 162% | % of WT hCD27 binding (geo mean FITC) (W90A): 126% | % of WT hCD27 binding (geo mean FITC) (V49A): 147% | % of WT hCD27 binding (geo mean FITC) (D43A): 194% | % of WT hCD27 binding (geo mean FITC) (K38A): 48.2% | % of WT hCD27 binding (geo mean FITC) (K31A): 203% | % of WT hCD27 binding (geo mean FITC) (S63A): 162% | % of WT hCD27 binding (geo mean FITC) (P44A): 158%
B1: Antibody hCD27.131A (mouse parental 131A) (antibody, V domains shown)
VH: QIQLVQSGPELKKPGETVKISCKASGYTFTNYGMNWVKQAPGKGLKWMGWINTNTGEPTYAEEFKGRFAFSLETSATTAYLQINNLKNEDTATYFCAREGDAMDYWGQGTSVTVSS
VL: QIVLTQSPAIMSASPGEKVTMTCSASSSVSYMHWYQQKSGTSPKRWIYDTSKLASGVPARFSGSGSGTSYSLTISSMEAEDAATYYCQQWNSYPFTFGSGTKLEIK
notes: mouse IgG1; also called mouse hCD27.131A
